The text below walks through data of publication PMC11255334, “Acetyl-CoA synthetase activity is enzymatically regulated by lysine acetylation using acetyl-CoA or acetyl-phosphate as donor molecule” (Nature Communications, 2024).

Assay [1] concerns the target T1, AcsA from Chloroflexota bacterium (Chloroflexota bacterium, UniProt Z9YKO5Y7U4).
T1 construct: monomer in solution and crystal; expression and tag not described; His476 found phosphorylated
T1 sequence (Z9YKO5Y7U4 9-657): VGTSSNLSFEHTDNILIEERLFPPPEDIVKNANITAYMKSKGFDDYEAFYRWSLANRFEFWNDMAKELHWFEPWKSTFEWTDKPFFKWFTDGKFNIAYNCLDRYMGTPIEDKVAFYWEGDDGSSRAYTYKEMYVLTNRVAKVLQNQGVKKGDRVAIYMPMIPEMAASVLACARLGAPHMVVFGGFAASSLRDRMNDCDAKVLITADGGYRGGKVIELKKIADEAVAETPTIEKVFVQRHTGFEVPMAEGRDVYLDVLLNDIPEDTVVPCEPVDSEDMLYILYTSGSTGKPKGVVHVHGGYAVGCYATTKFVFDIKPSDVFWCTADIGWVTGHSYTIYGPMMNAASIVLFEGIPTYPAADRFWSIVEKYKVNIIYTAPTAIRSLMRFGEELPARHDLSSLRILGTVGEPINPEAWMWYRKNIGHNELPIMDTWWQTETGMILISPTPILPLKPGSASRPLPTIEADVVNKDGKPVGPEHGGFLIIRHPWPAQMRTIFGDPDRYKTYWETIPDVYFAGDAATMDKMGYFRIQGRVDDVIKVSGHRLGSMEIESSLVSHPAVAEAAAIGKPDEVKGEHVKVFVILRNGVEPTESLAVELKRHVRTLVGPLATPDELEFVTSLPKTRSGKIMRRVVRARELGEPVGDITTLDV
Briefly: X-ray crystallography. It counts as binding. Conditions: product of the first half-reaction; thioester-forming conformation.

The next assay deals with T2, AcsA E473A (Bacillus subtilis, UniProt P39062 1-572, E473A).
T2 construct: AcsA, Bacillus subtilis, UniProt P39062, with E473A
T2 sequence (looked up): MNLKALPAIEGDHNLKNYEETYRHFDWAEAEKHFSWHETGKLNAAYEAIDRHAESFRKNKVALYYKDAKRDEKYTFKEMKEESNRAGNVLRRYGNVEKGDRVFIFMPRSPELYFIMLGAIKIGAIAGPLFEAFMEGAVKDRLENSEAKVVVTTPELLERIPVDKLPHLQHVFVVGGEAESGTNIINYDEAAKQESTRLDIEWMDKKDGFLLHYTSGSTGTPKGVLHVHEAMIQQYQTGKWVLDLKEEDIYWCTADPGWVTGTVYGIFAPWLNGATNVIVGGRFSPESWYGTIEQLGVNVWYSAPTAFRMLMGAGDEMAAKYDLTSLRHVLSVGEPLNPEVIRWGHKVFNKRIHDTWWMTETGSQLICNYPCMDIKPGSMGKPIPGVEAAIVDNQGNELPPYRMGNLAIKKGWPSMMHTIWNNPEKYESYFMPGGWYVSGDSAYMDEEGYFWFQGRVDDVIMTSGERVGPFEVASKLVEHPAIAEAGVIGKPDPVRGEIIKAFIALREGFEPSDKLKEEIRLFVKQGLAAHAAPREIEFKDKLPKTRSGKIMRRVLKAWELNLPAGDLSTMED
Briefly: SEC; analytical SEC of equimolar AcsA and AcuA (wild type or mutants), incubated 30 min at room temperature, Superdex 200 10/300 GL, 50 mM Tris/HCl pH 8, 50 mM KCl, 2 mM β-mercaptoethanol; 100 µl of 50–100 µM; without ligand or with a tenfold molar excess of CoA or AcP alone. The settings on record: both partners purified. (In general: SEC sorts molecules by how far they enter the pores of the column.)

The next assay has as its target T3, AcsA K549Q (Bacillus subtilis, UniProt P39062 1-572, K549Q).
T3 construct: AcsA, Bacillus subtilis, UniProt P39062, with K549Q; also called acetylation-mimetic mutant AcsA K549Q
T3 sequence (looked up): T2 sequence (looked up) with A473E, K549Q
Described as above. The settings on record: both partners purified.

Another assay concerns the target T4, AcsA V477A (Bacillus subtilis, UniProt P39062 1-572, V477A).
T4 construct: AcsA, Bacillus subtilis, UniProt P39062, with V477A
T4 sequence (looked up): T2 sequence (looked up) with A473E, V477A
The assay is described as above. Conditions: both partners purified.

A further assay has as its target T5, AcsA K549R (Bacillus subtilis, UniProt P39062 1-572, K549R).
T5 construct: AcsA, Bacillus subtilis, UniProt P39062, with K549R; also called non-acetylated mutant AcsA K549R
T5 sequence (looked up): T2 sequence (looked up) with A473E, K549R
Described as above. The settings on record: both partners purified.

Assay [2] concerns the target Bacillus subtilis AMP-forming acetyl-CoA synthetase AcsA (Bacillus subtilis) (UniProt P39062). Described as above.

Where a chain is given by its changes, count along the chain named.

`CC(=O)OP(=O)(O)OC[C@H]1O[C@@H](n2cnc3c(N)ncnc32)[C@H](O)[C@@H]1O` [acetyl-AMP]: the X-ray crystallography entry in assay [1] is “structure solved in complex with acetyl-AMP, i.e. the product of the first half-reaction”.

B1: Bacillus subtilis acetyltransferase AcuA (enzyme, UniProt P39065 1-210, looked up)
chain: MEHHKTYHSANIKTATGSLLIEGPVSPEDLAGYEFHKDLTAFRPPREQHEALVDIAGLPEGRIIIARDGRTIVGYVTYLYPDPLERWSEGNMEDLIELGAIEVAPDYRGCAVGKTLLTVSMMDEQMENYIVMTTEYYWHWDLKGMKKDVWEYRKIMEKMMNAGGLVWFATDEPEISSHPANCLMARIGKNVSQESIEQFDRLRFYHRYMY
notes: GNAT-related lysine acetyltransferase AcuA, Bacillus subtilis, UniProt P39065; synthetic gene codon optimized for E. coli; also called AcuA wildtype; AcuA WT; source: E. coli BL21 (DE3), pET45b(+), purified (HisTrap FF, Ni2+)
Regarding B1, the binding result in the assay with AcsA E473A, with AcsA K549Q, in the assay with AcsA V477A and in the assay with AcsA K549R was “binds” in each case. Also, in assay [2], the stoichiometry N (AcuA per AcsA (2:2)) came to 1.
